Target: T1, 6xHis-SAMHD1 wild-type (full-length, recombinant) (human, UniProt Q9Y3Z3 1-626)
T1 construct: SAMHD1, full-length, from pET14b-6xHis-SAMHD1 (gift from Dr. Baek Kim); with N-terminal His tag and linker region, calculated molecular weight 74 kDa; Tetramer only stated after preincubation with dGTP; also called recombinant SAMHD1; SAMHD1 WT protein; source: E. coli BL21 Rosetta, purified (His-Trap, Superdex 200 SEC); not shown: His6, N-terminal, kept
Assay: pull-down; GST-SIRT1 (193-741) pre-incubated with glutathione-agarose beads in 50 mM Tris-Cl pH 8, 150 mM NaCl, protease inhibitors, 1 h at 4 °C; recombinant SAMHD1 added for 2 h at 4 °C; blots with anti-SAMHD1 or anti-GST
Details: both partners purified

T1 sequence (Q9Y3Z3 whole entry): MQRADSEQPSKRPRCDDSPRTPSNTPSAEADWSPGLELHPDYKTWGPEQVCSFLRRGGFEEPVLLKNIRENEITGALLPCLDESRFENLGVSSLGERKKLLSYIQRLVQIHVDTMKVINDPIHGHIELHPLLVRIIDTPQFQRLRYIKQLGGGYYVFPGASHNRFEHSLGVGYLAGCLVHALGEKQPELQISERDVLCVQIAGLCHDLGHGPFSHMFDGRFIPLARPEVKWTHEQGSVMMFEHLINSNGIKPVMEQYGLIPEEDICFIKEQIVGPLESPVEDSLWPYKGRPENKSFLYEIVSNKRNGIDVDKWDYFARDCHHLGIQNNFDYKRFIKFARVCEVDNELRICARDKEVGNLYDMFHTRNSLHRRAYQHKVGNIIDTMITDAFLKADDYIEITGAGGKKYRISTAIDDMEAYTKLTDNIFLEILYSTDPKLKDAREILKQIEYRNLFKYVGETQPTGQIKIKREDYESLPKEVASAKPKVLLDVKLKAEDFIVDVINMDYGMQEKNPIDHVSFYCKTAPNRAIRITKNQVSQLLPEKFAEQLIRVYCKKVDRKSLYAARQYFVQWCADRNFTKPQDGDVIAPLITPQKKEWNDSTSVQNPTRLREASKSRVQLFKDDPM

binding result: binds
B1: GST-SIRT1 (containing amino acids 193-741 of SIRT1) (domain or fragment, UniProt Q96EB6 193-741, looked up)
chain: MIGTDPRTILKDLLPETIPPPELDDMTLWQIVINILSEPPKRKKRKDINTIEDAVKLLQECKKIIVLTGAGVSVSCGIPDFRSRDGIYARLAVDFPDLPDPQAMFDIEYFRKDPRPFFKFAKEIYPGQFQPSLCHKFIALSDKEGKLLRNYTQNIDTLEQVAGIQRIIQCHGSFATASCLICKYKVDCEAVRGDIFNQVVPRCPRCPADEPLAIMKPEIVFFGENLPEQFHRAMKYDKDEVDLLIVIGSSLKVRPVALIPSSIPHEVPQILINREPLPHLHFDVELLGDCDVIINELCHRLGGEYAKLCCNPVKLSEITEKPPRTQKELAYLSELPPTPLHVSEDSSSPERTSPPDSSVIVTLLDQAAKSNDDLDVSESKGCMEEKPQEVQTSRNVESIAEQMENPDLKNVGSSTGEKNERTSVAGTVRKCWPNRVAKEQISRRLDGNQYLFLPPNRYIFHGAEVYSDSEDDVLSSSSCGSNSDSGTCQSPSLEEPMEDESEIEEFYNGLEDEPDVPERAGGAGFGTDGDDQEAINEAISVKQEVTDMN
notes: SIRT1 amino acids 193-741, recombinant, lacking N-terminal amino acids 1-192; The results call it bacterially-purified; also called GST-SIRT1 (lacking N-terminal amino acids 1–192); source: bought: Active Motif # 31533
